Laboratory results published in patent US20160289309A1.

Experiments:
[1] = molecular target: Tau in cerebrospinal fluid of cynomolgus monkeys (free Tau / extracellular Tau, eTau) (cynomolgus monkey (Macaca fascicularis)); assay: cell-based or functional assay
[2] = molecular target: Tau in cerebrospinal fluid of cynomolgus monkeys (free Tau / extracellular Tau, eTau) (cynomolgus monkey (Macaca fascicularis)); assay: estimate from a PK/PD model fitted to free eTau (ELISA) in CSF of cynomolgus monkeys dosed with hu-IPN002; not a direct binding assay

B1: hu-IPN002 (antibody, IgG4, V domains shown)
VH: EVHLVESGGALVKPGGSLRLSCAASGFSFSKYGMSWVRQAPGKGLEWVATISSSGSRTYYPDSVKGRFTISRDNAKNTLYLQMNSLRAEDTAMYYCSISWDGAMDYWGQGTTVTVSS
VL: DVVMTQSPLSLPVTLGQPASISCKSSQSIVHSNGNTYLEWYLQKPGQSPQLLVYKVSNRFSGVPDRFSGSGSGTDFTLKISRVEAEDVGTYYCFQGSLVPWAFGGGTKVEIK
free eTau level in CSF between 8 and 168 hours, 20 mg/kg dose (% of baseline) [1]: 1.35 to 7.44 | free eTau level in CSF between 48 and 96 hours, 5 mg/kg dose (% of baseline) [1]: 17.3 to 21 | maximal reduction of CSF free eTau, single 5 mg/kg IV dose in cynomolgus monkeys [1]: 83% | maximal reduction of CSF free eTau, single 20 mg/kg IV dose in cynomolgus monkeys [1]: 99% | Kd [2]: 0.16 nM
